The chains are these.
T1: SH2 domain of Monosiga brevicollis crka1 (Monosiga brevicollis, UniProt A0A1C9VNP8 1-97)
T1 chain: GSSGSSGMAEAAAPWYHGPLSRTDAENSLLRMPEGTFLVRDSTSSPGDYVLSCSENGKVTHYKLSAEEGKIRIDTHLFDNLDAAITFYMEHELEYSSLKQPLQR

22 molecules from publication PMC5043372 (2016) can be followed below.

What is called Kd is the free concentration of one partner at which half of the binding sites on the other are occupied at equilibrium, for simple one-to-one binding. Higher therefore signals a looser complex.

Non-standard residues stand in square brackets, D forms with d. No end group written: not given here. pY = N[C@@H](Cc1ccc(OP(=O)(O)O)cc1)C(=O)O

In the first test the target is T2, SH2 domain of human CRK (human, UniProt P46108 13-118). As to the kind of experiment: ITC. (In ITC the heat of successive injections is recorded.)
T2 sequence (P46108 other isoform, or with tags, fused parts or gaps): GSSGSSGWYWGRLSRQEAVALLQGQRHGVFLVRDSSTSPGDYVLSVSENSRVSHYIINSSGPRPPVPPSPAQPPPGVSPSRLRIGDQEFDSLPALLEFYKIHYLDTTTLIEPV
For AE[pY]QVPTS [Dok7 Y396], the Ka was 2.34e+06 M⁻¹.
DL[pY]QVPPG [Bcar1 Y169]: the Ka is 460000 M⁻¹.

Another test deals with T3, SH2 domain of human CRKL (human, UniProt P46109 14-102). Kind of test: ITC.
T3 sequence (P46109 other isoform, or with tags, fused parts or gaps): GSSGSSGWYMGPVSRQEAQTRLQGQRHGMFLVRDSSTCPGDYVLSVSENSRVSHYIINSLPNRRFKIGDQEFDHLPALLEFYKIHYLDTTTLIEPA
The molecule AE[pY]QVPTS [Dok7 Y396] gave a Ka of 1.53e+06 M⁻¹.
On the same count and under the same terms, in the case of HH[pY]DTPRS [phosphotyrosyl peptide from M. musculus Dok7 (Y406)] it was 9.16e+06 M⁻¹.

The next test has as its target T1, SH2 domain of Monosiga brevicollis crka1. As to the kind of experiment: ITC.
For the molecule AE[pY]QVPTS [Dok7 Y396], the Ka was determined as 23300 M⁻¹.
HH[pY]DTPRS [phosphotyrosyl peptide from M. musculus Dok7 (Y406)] showed a Ka of 116000 M⁻¹.

The target of another test is T2, SH2 domain of human CRK. Kind of test: ITC. The source holds these as a separate data set.
QQ[pY]SSPGL [EPHB6 Y635 peptide QQ-pYSSP-GL] displayed an equilibrium dissociation constant (Kd) of 5210 nM.
SR[pY]QQPFE [PLCG1 Y1253 peptide SR-pYQQP-FE] showed a Kd of 6450 nM.
In the case of HV[pY]SFPNK [paxillin (PXN) Y118 peptide HV-pYSFP-NK], the Kd worked out at 2480 nM.
Same read-out and setting: under HH[pY]DTPRS [phosphotyrosyl peptide from M. musculus Dok7 (Y406)] stands 60.2 nM; under SV[pY]DVPPS [p130Cas (Bcar1) Y310 peptide SV-pYDVP-PS], 649 nM; under PH[pY]FVLTS [PLCG1 Y509 peptide PH-pYFVL-TS], 8930 nM.
SN[pY]MAPYD [PDGFRB Y771 peptide SN-pYMAP-YD] yielded a dissociation constant Kd of 25100 nM.
Turning to EV[pY]DTPPM [p130Cas (Bcar1) Y271 peptide EV-pYDTP-PM], the Kd was 1070 nM.
Consider PN[pY]MFPSQ [ROR1 Y789 peptide PN-pYMFP-SQ], for which the Kd was determined as 8850 nM.
In turn, DL[pY]DVPPG [p130Cas (Bcar1) Y376 peptide DL-pYDVP-PG] had a Kd of 4830 nM.
Molecule DV[pY]DVPPS [p130Cas (Bcar1) Y291 peptide DV-pYDVP-PS] returned a Kd of 455 nM.
In turn, SV[pY]ESPYS [ZAP70 Y315 peptide SV-pYESP-YS] displayed a Kd of 4440 nM.
For AE[pY]QVPTS [Dok7 (Y396) peptide AE-pYQVP-TS], binding was put at a Kd of 427 nM.
GP[pY]AQPSV [CRK Y221 peptide GP-pYAQP-SV] had a Kd of 10200 nM.
SL[pY]DRPAS [PDGFRA Y762 peptide SL-pYDRP-AS] showed an equilibrium dissociation constant (Kd) of 980 nM.
Still for that read-out and setting: in the case of DL[pY]QVPPG [p130Cas (Bcar1) Y169 peptide DL-pYQVP-PG] it was 2170 nM; in that of DE[pY]DTPRH [phosphotyrosyl peptide from M. musculus Bcar1 (p130Cas, Y238)], 127 nM.

A further test addresses T3, SH2 domain of human CRKL. As to the kind of experiment: ITC. The source holds these as a separate data set.
In turn, SR[pY]QQPFE [PLCG1 Y1253 peptide SR-pYQQP-FE] yielded an equilibrium dissociation constant (Kd) of 9800 nM.
Take HH[pY]DTPRS [phosphotyrosyl peptide from M. musculus Dok7 (Y406)]: the affinity, expressed as Kd, was 109 nM.
Consider DV[pY]DVPPS [p130Cas (Bcar1) Y291 peptide DV-pYDVP-PS], for which the Kd stood at 1060 nM.
AE[pY]QVPTS [Dok7 (Y396) peptide AE-pYQVP-TS] returned an equilibrium dissociation constant (Kd) of 654 nM.
The same measure, in the same setting: in the case of DE[pY]DTPRH [phosphotyrosyl peptide from M. musculus Bcar1 (p130Cas, Y238)] it was 368 nM.

Another test addresses T1, SH2 domain of Monosiga brevicollis crka1. Kind of test: ITC. The source holds these as a separate data set.
DM[pY]DVPRN [phosphopeptide DM-pYDVP-RN of S. rosetta PTSG_05573] registered a Kd of 61.7 µM.
HH[pY]DTPRS [phosphotyrosyl peptide from M. musculus Dok7 (Y406)] gave a Kd of 8.62 µM.
The molecule LN[pY]ENLPS [FRS2 Y349 peptide LN-pYENL-PS] had a dissociation constant (Kd) of 126 µM.
The same measure, in the same setting: in the case of AE[pY]QVPTS [Dok7 (Y396) peptide AE-pYQVP-TS] it was 42.9 µM; in that of DE[pY]DTPRH [phosphotyrosyl peptide from M. musculus Bcar1 (p130Cas, Y238)], 10.1 µM.
In turn, EM[pY]DVPRS [phosphopeptide EM-pYDVP-RS of S. rosetta PTSG_05573] registered an equilibrium dissociation constant (Kd) of 118 µM.
